Results: the DeepSol protein solubility set

Assay: soluble on expression in E. coli; label from the status in PepcDB or PDB records

Soluble on expression in E. coli, not soluble:
MTKNLLVELGLEELPAYVVTPSEKQLGEKMAAFLKGKRLSFEAIQTFSTPRRLAVRVTGLADKQSDLTEDFKGPAKKIALDSDGNFTKAAQGFVRGKGLTVEDIEFREIKGEEYVYVTKEEIGQAVEAIVPGIVDVLKSLTFPVSMHWAGNSFEYIRPVHTLTVLLDEQEFDLDFLDIKGSRVSRGHRFLGQETKIQSALSYEEDLRKQFVIADPCEREQMIVDQIKEIEAKHGVRIEIDADLLNEVLNLVEYPTAFMGSFDAKYLEVPEEVLVTSMKEHQRYFVVRDQDGKLLPNFISVRNGNAERLKNVIKGNEKVLVARLEDGEFFWREDQKLVISDLVEKLNNVTFHEKIGSLREHMIRTGQITVLLAEKASLSVDETVDLARAAAIYKFDLLTGMVGEFDELQGIMGEKYTLLAGETPAVAAAIREHYMPTSAEGELPESKVGAVLAIADKLDTILSFFSVGLIPSGSNDPYALRRATQGVVRILDAFGWHIAMDELIDSLYALKFDSLTYENKAEVMDFIKARVDKMMGSTPKDIKEAVLAGSNFV
MGSDKIHHHHHHMTFKNDVDGCSYPGILSASRSTDIPAFYAEWFSRRLRDGYVVWKSPFNQKCYSVCFEKAGGIVFWTKNPKPLMPFLDEVSELGYDYYFQFTVNDYESEGFEPNVPPLDERIETFRSLSQKLGKERVIWRFDPICLTRELDVEGIMARLRSIGECLKGYTEQLVISFVDVHAYTKVQRNIKTADGFCLREPSMEEQDELARRISSYAKEIGVSPSACGERRSFAHFGILPNKCIDGELFKRICRKGNIKLQKHLGTYIDQYSLLSPQKKDVTLCKDKGQRKECGCVESKDIGMYNTCNHMCVYCYANTSQRVVEKNRVLHDVNGESLIPTSRTVEE
MSHSTYSLSFVASPSEEAQTALKELKAVYSDTPFEEADVIVALGGDGFMLQILNETMNSGKRVYGMNRGSVGFLMNDFRVEGLIQRIAVASGNDFHPLRMTTTDSDGDEFTALAMNEVSLFRQSHQAAKLRVEVDGKVRLEELICDGMMVATPAGSTAYNFSAHGPILPLESPLLALTPVSAFRPRRWRGALLPNKVTVDIHVLERDKRPVNAVADHTEVKSVRHVRIAQSQDRTAKILSDPDRSWSDRVLAEQFNNLEHHHHHH
MKILYIVLDGAADSPTSPRKTLEEASKPNIDSLGSHAVCGMVYTVKPGVAPQSDYATLSLLGYNPDEYYPGRGPLEAFGAGIEMRRGDIALRANFATVDPGTLRIIDRRVGRSLTSREARELASAVDGMELEDGEGTALFRATIGHRGVLVLRHRSKPLSDAISNTDPAYERRGRFSVALEKYEPFIKLSNPLVEDEAAVLAARMLNEFTLKAVEILDSHPVNLAREKRGLLKANAILSRDAGGLPEEKPPSFQERFGLRGASIVEMVVERGISRYIGLDDIRVEIEGRAREEVYREEAARAVEALETHDLVYVHLKGPDEPGHDGSFEGKIRAVEDIDKHFFAPLLDRLSSAGLEPAFVVTSDHATPWDVGAHSGDPVPLMISHQSIQ
MKPARLSQTVVAPGCWGELPWGNYYREALEQQLNPWFAKMYGFHLLKIGNLSAEINSEACAVSHQVNVSSQGSPMQVLADPLHLPFADKSVDVCLLAHTLPWCTDPHRLLREADRVLIDDGWLVISGFNPLSLMGLRKLVPVLRKTPPYNSRMFTLMRQLDWLSLLNFEVLHYSRFHVLPWKKQGGRLLNTHIPALGCLQLIVARKRTIPLTLNPLRHNKSKTPIRQTVGATRQYRKPDG
MGSDKIHHHHHHMDSLSSILKSVRLQGSVYFNACFASPWGLDLDQNQRAYFHLIIRGACYLQLGDKKEQLQGGDIIILPHGTAHQLFDDPSSVRVNATGVVPGLIDGINPFEGVGHSQDIDILCGYFNFNNSTPSYFLNALPDVIHLTQEHRTHFSFLDNALSFITQETKMKNLGREILIDRVTELLFVQIMRVYININGNEENIFSALSDRTLSEALQLMHTESDKNWTVESLAKAIGMSRSRFSEHFHNYIGETPMRYLHTCRMEVAKQKIEETESTLNIISEEVGYASDSAFKKAFKKFFGNTPSTFRQKNDK
MGSDKIHHHHHHMLPPLDSDLMRGFLAVVETGSLTRAGHRLGRTQSAISMQIRKLEDSLGQSVFVREPRGVRLTERGKQLLPYAQRVVGLLDEAAIALREKPLSGPVRVGVPDEYIQGVLPAVLSAFSQRHPETQVTLRCDFSAPQLEALNSDKIDLAVIYEGYSTDEVEVLAVDPTVWVTSISHAQHLHRPLPISIYFSSDWCRDFALHSLEQIGIPYFAAFECDTSGGMRSAVSNGIAVAPLARSSIPPGCRELTAEDGFMGVDNARVVLRRNPAGSSTAIEAMVATLREAFWPLTKNGGL
